Reference: paper PMC4574351, “Tubulin cofactors and Arl2 are cage-like chaperones that regulate the soluble αβ-tubulin pool for microtubule dynamics” (eLife, 2015)

Biological target: T1, Tubulin cofactor D (TBCD), S. cerevisiae Cin1p (S. cerevisiae, UniProt P40987 1-1014)
T1 construct: Tubulin cofactor D ortholog Cin1p, S. cerevisiae, full-length cDNA; TBCD is insoluble when expressed alone; also called Yeast TBCD (cin1p); His-TBCD; source: E. coli, co-expressed with TBCE and Arl2 from polycistronic vectors; co-purified as TBC-DEG (Ni-NTA, HiTrap SP, Superdex 200); not shown: 6xHis, N-terminal, kept
T1 sequence (looked up): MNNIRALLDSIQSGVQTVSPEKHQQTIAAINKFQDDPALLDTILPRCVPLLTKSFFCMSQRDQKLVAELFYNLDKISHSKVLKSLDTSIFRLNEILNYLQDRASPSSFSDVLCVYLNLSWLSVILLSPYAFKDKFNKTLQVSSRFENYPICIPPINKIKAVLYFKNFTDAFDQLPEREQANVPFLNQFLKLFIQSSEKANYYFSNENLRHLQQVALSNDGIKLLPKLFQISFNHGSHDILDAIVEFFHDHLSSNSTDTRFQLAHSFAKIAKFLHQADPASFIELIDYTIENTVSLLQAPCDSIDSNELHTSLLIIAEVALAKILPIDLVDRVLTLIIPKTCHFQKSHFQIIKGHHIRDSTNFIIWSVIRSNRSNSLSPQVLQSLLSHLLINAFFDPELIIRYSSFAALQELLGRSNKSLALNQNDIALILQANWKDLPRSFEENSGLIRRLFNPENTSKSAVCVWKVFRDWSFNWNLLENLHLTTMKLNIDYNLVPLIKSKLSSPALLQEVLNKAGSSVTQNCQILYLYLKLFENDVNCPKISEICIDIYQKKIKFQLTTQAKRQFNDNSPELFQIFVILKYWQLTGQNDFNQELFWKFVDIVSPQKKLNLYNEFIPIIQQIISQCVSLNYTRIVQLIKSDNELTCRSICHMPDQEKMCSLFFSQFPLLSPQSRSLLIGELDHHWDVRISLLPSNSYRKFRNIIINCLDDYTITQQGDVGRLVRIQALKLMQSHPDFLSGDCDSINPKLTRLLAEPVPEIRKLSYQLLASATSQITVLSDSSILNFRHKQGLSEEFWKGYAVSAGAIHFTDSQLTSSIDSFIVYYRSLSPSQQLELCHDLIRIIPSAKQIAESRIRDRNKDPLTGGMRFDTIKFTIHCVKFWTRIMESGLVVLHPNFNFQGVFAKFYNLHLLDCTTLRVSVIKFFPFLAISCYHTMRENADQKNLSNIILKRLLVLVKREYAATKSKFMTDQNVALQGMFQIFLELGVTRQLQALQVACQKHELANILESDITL
Experiment: SEC-MALS; WTC-03S5 column; purified TBC-DEG (subunits co-expressed and co-purified), αβ-tubulin, TBCC and their complexes; ternary complex with GDP·ALFx (wild type) or GTP (Q73L)
Conditions: both partners purified

B1: Arl2 GTPase, S. cerevisiae Cin4p (enzyme, UniProt P39110 1-191, looked up)
chain: MGLLSIIRKQKLRDKEIRCLILGLDNSGKSTIVNKLLPKDEQNNDGIMPTVGFQIHSLMIKDVTISLWDIGGQRTLRPFWDNYFDKTQAMIWCIDVSLSMRFDETLQELKELINRDENRIGYECAVIVVLNKIDLVEDKSELHRRCLLVESELKCLFKPDIRIELVKCSGVTGEGIDNLRDRLVESCHFTQ
notes: ADP ribosylation factor-like 2 ortholog Cin4p, S. cerevisiae, full-length cDNA; Tags were not tolerated on either end of Arl2; Insoluble when expressed alone; also called Yeast Arl2 (cin4p); source: E. coli, co-expressed with TBCD and TBCE from polycistronic vectors; co-purified as TBC-DEG (Ni-NTA, HiTrap SP, Superdex 200)
  stoichiometry N: 1
